From paper PMC3326396 (Biochemistry, 2012)

B1: N-terminal Strep2-(G4S)3-tagged PhaC purified from R. eutropha (enzyme, Ralstonia eutropha H16, UniProt P23608 2-589, looked up)
chain: ATGKGAAASTQEGKSQPFKVTPGPFDPATWLEWSRQWQGTEGNGHAAASGIPGLDALAGVKIAPAQLGDIQQRYMKDFSALWQAMAEGKAEATGPLHDRRFAGDAWRTNLPYRFAAAFYLLNARALTELADAVEADAKTRQRIRFAISQWVDAMSPANFLATNPEAQRLLIESGGESLRAGVRNMMEDLTRGKISQTDESAFEVGRNVAVTEGAVVFENEYFQLLQYKPLTDKVHARPLLMVPPCINKYYILDLQPESSLVRHVVEQGHTVFLVSWRNPDASMAGSTWDDYIEHAAIRAIEVARDISGQDKINVLGFCVGGTIVSTALAVLAARGEHPAASVTLLTTLLDFADTGILDVFVDEGHVQLREATLGGGAGAPCALLRGLELANTFSFLRPNDLVWNYVVDNYLKGNTPVPFDLLFWNGDATNLPGPWYCWYLRHTYLQNELKVPGKLTVCGVPVDLASIDVPTYIYGSREDHIVPWTAAYASTALLANKLRFVLGASGHIAGVINPPAKNKRSHWTNDALPESPQQWLAGAIEHHGSWWPDWTAWLAGQAGAKRAAPANYGNARYRAIEPAPGRYVKAKA
B2: N-terminal-Strep2-(G4S)3-tagged PhaC purified from E. coli (enzyme, Ralstonia eutropha H16, UniProt P23608 2-589, looked up)
chain: B1 chain

Molecular target: the molecule itself
Test: SEC

Protein	stoichiometry N
B1	2
B2	2
